Test results: IntAct's records for PubMed 31515488

B1: Nucleoside diphosphate kinase homolog 5 (Homo sapiens), P56597 (parent)
chain: MEISMPPPQIYVEKTLAIIKPDIVDKEEEIQDIILRSGFTIVQRRKLRLSPEQCSNFYVEKYGKMFFPNLTAYMSSGPLVAMILARHKAISYWLELLGPNNSLVAKETHPDSLRAIYGTDDLRNALHGSNDFAAAEREIRFMFPEVIVEPIPIGQAAKDYLNLHIMPTLLEGLTELCKQKPADPLIWLADWLLKNNPNKPKLCHHPIVEEPY
B2: KAT8 regulatory NSL complex subunit 1 (Homo sapiens), Q7Z3B3 (parent)
chain: MAAMAPALTDAAAEAHHIRFKLAPPSSTLSPGSAENNGNANILIAANGTKRKAIAAEDPSLDFRNNPTKEDLGKLQPLVASYLCSDVTSVPSKESLKLQGVFSKQTVLKSHPLLSQSYELRAELLGRQPVLEFSLENLRTMNTSGQTALPQAPVNGLAKKLTKSSTHSDHDNSTSLNGGKRALTSSALHGGEMGGSESGDLKGGMTNCTLPHRSLDVEHTTLYSNNSTANKSSVNSMEQPALQGSSRLSPGTDSSSNLGGVKLEGKKSPLSSILFSALDSDTRITALLRRQADIESRARRLQKRLQVVQAKQVERHIQHQLGGFLEKTLSKLPNLESLRPRSQLMLTRKAEAALRKAASETTTSEGLSNFLKSNSISEELERFTASGIANLRCSEQAFDSDVTDSSSGGESDIEEEELTRADPEQRHVPLRRRSEWKWAADRAAIVSRWNWLQAHVSDLEYRIRQQTDIYKQIRANKGLIVLGEVPPPEHTTDLFLPLSSEVKTDHGTDKLIESVSQPLENHGAPIIGHISESLSTKSCGALRPVNGVINTLQPVLADHIPGDSSDAEEQLHKKQRLNLVSSSSDGTCVAARTRPVLSCKKRRLVRPNSIVPLSKKVHRNSTIRPGCDVNPSCALCGSGSINTMPPEIHYEAPLLERLSQLDSCVHPVLAFPDDVPTSLHFQSMLKSQWQNKPFDKIKPPKKLSLKHRAPMPGSLPDSARKDRHKLVSSFLTTAKLSHHQTRPDRTHRQHLDDVGAVPMVERVTAPKAERLLNPPPPVHDPNHSKMRLRDHSSERSEVLKHHTDMSSSSYLAATHHPPHSPLVRQLSTSSDSPAPASSSSQVTASTSQQPVRRRRGESSFDINNIVIPMSVAATTRVEKLQYKEILTPSWREVDLQSLKGSPDEENEEIEDLSDAAFAALHAKCEEMERARWLWTTSVPPQRRGSRSYRSSDGRTTPQLGSANPSTPQPASPDVSSSHSLSEYSHGQSPRSPISPELHSAPLTPVARDTPRHLASEDTRCSTPELGLDEQSVQPWERRTFPLAHSPQAECEDQLDAQERAARCTRRTSGSKTGRETEAAPTSPPIVPLKSRHLVAAATAQRPTHR
partner: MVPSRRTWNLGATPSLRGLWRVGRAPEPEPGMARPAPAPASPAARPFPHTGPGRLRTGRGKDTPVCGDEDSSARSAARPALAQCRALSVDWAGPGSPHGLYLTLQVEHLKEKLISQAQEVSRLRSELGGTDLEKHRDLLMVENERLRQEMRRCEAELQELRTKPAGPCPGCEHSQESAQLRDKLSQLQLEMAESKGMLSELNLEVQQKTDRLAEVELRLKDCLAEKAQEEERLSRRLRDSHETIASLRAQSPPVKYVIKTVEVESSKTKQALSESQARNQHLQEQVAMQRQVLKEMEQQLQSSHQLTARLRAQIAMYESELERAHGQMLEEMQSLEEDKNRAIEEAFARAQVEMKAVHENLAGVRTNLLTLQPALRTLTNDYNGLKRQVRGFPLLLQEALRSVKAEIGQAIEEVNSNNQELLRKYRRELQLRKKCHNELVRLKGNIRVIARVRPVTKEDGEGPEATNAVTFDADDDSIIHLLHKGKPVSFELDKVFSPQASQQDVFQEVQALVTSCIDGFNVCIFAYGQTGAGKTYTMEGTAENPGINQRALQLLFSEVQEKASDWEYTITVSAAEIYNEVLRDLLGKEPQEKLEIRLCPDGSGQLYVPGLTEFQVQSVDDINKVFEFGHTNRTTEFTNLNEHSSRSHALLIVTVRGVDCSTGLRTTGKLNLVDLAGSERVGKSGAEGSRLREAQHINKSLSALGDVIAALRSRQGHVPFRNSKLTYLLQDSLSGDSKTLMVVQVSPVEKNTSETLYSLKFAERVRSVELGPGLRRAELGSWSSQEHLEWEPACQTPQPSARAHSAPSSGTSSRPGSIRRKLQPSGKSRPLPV
B3: Microtubule-associated tumor suppressor candidate 2 (Homo sapiens), Q5JR59-3 (parent)
chain: MGHCCCKPYNCLQCLDKTNESALVKEKELSIELANIRDEVAFHTAKCEKLQKEKEELERRFEDEVKRLGWQQQAELQELEERLQLQFEAEMARLQEEHGDQLLSIRCQHQEQVEDLTASHDAALLEMENNHTVAITILQDDHDHKVQELMSTHELEKKELEENFEKLRLSLQDQVDTLTFQSQSLRDRARRFEEALRKNTEEQLEIALAPYQHLEEDMKSLKQVLEMKNQQIHEQEKKILELEKLAEKNIILEEKIQVLQQQNEDLKARIDQNTVVTRQLSEENANLQEYVEKETQEKKRLSRTNEELLWKLQTGDPTSPIKLSPTSPVYRGSSSGPSSPARVSTTPR
partner: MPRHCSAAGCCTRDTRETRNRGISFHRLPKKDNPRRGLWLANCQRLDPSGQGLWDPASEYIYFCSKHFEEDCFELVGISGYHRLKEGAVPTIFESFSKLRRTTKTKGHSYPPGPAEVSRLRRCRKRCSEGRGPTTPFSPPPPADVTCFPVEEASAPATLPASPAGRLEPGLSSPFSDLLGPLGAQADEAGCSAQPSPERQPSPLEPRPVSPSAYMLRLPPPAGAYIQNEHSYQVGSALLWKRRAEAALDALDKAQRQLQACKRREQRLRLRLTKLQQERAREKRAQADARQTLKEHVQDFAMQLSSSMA

Variants of: B1
Conditions: with dydc1_human DYDC1, Q8WWB3
dydc1_human DYDC1, Q8WWB3, sequence (Q8WWB3 whole entry): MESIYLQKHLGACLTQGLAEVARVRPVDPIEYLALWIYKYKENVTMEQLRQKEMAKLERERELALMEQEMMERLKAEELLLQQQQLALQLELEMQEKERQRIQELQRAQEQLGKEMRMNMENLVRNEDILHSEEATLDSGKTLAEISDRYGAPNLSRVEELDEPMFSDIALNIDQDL

Variant | effect of a mutation on the interaction
MEISMPPPQIYVEKTLAIIKPDIVDKEEEIQDIILRSGFTIVQRRKLRLNPEQCSNFYVEKYGKMFFPNLTAYMSSGPLVAMILARHKAISYWLELLGPNNSLVAKETHPDSLRAIYGTDDLRNALHGSNDFAAAEREIRFMFPEVIVEPIPIGQAAKDYLNLHIMPTLLEGLTELCKQKPADPLIWLADWLLKNNPNKPKLCHHPIVEEPY [S50N] | with no effect
MEISMPPPQIYVEKTLAIIKPDIVDKEEEIQDIILRSGFTIVQRRKLRLSPEQCSNFYVEKYGKMFFPNLTAYMSSGPLVAMILARHKAISYWLELLGPNNSLVAKETHPDSLRAIYGTDDLRNALHGSNDFAAAEREIRFMFPEVIVEPIPIGQAAKDYLNLHIMPTLLEGLTELCKQKPADPLIWLADWLLKNNPDKPKLCHHPIVEEPY [N198D] | with no effect
MEISMPPPQIYVEKTLAIIKPDIVDKEEEIQDIILRSGFTIVQRRKLRLSPEQCSNFYVEKYGKMFFPNLTAYMSSGPLVAMILARHKAISYWLELLGPNNSFVAKETHPDSLRAIYGTDDLRNALHGSNDFAAAEREIRFMFPEVIVEPIPIGQAAKDYLNLHIMPTLLEGLTELCKQKPADPLIWLADWLLKNNPNKPKLCHHPIVEEPY [L103F] | with no effect
MEISMPPPQIYVEKTLAIIKPDIVDKEEEIQDIILRSGFTIVQRRKLRLSPEQCSNFYVEKYGKMFFPNLTAYMSSGPLVAMILARHKAISYWLELLGPNNSLVAKETHPDSLRAIYGTDDLRNALHGSNDFAAAEREIRFMFPEVIVEPIPIGQAAKDYLNLHMMPTLLEGLTELCKQKPADPLIWLADWLLKNNPNKPKLCHHPIVEEPY [I165M] | with no effect

Variants of: B2
Conditions: with kifc3_human KIFC3, Q9BVG8

Variant | effect of a mutation on the interaction
K104T | disrupting interaction strength

Variants of: B3
Conditions: with thap7_human THAP7, Q9BT49

Variant | effect of a mutation on the interaction
MGHCCCKPYNCLQCLDKTNESALVKEKELSIELANIRDEVAFHTAKCEKLQKEKEELERRFEDEVKRLGWQQQAELQELEERLQLQFEVEMARLQEEHGDQLLSIRCQHQEQVEDLTASHDAALLEMENNHTVAITILQDDHDHKVQELMSTHELEKKELEENFEKLRLSLQDQVDTLTFQSQSLRDRARRFEEALRKNTEEQLEIALAPYQHLEEDMKSLKQVLEMKNQQIHEQEKKILELEKLAEKNIILEEKIQVLQQQNEDLKARIDQNTVVTRQLSEENANLQEYVEKETQEKKRLSRTNEELLWKLQTGDPTSPIKLSPTSPVYRGSSSGPSSPARVSTTPR [A89V] | with no effect
